The target of the test is CD40 (Homo sapiens, UniProt P25942). The experiment in a line: Reporter gene cell activity of chimeric anti-CD40 antibodies (HEK-Blue CD40L cells, CD40L-induced SEAP). On the set-up: host or cells: HEK-Blue CD40L cells. The test is classed as cell-based. The settings on record: CD40L-stimulated HEK-Blue CD40L cells. On the procedure: HEK-Blue CD40L cells were purchased from Invivogen (Cat. #hkb-cd40). The cells were stably transfected with the human CD40 gene and the NF-kB-mediated SEAP genome. The activation level of the CD40 signaling pathway can be characterized by detecting the secreted SEAP in the supernatant using QUANTI-Blue, the substrate of SEAP. In this experiment, the in vitro antagonist activity of anti-CD40 antibodies was assessed according to IC50 by detecting the activation of HEK-Blue CD40L cells by CD40L. HEK-Blue CD40L cells were cultured in a DMEM medium containing 10% FBS, 100 μg/mL Zeocin, and 30 μg/mL Blasticidin, and passaged 2-3 times in a week at a ratio of 1:5 or 1:10. During passaging, the medium was pipetted off, and the cell layer was rinsed with 5 mL of 0.25% pancreatin. Then the pancreatin was pipetted off, the cells were digested in an incubator for 3-5 min, and then a fresh medium was added to resuspend cells. 100 μL of cell suspension was added to a 96-well cell culture plate at a density of 5×10^5 cells/mL. The medium was DMEM containing 10% FBS, 100 μg/mL Zeocin, and 30 μg/mL Blasticidin. Only 100 μL of sterile water was added to the peripheral wells of the 96-well plate. […] The absorbance at 630 nm was measured with a microplate reader (Thermo MultiSkanFc), and IC50 values were calculated and used to assess the in vitro cell activity of the anti-CD40 antibodies.
Chain of CD40 (P25942 21-277): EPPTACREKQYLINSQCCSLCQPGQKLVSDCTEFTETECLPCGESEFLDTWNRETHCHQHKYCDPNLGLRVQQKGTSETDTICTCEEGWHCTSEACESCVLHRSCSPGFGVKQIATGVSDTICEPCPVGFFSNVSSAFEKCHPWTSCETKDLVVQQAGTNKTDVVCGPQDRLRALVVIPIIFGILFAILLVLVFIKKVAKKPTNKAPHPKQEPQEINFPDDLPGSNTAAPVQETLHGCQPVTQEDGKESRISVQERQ
(In a reporter assay the amount or activity of a reporter protein is the signal.)

As a reminder, the pIC50 is the IC50 on a negative log10 scale, so that one unit is a factor of ten. Low values mean a high IC50, high ones a low IC50.

pIC50: −log10 of the molar value.

“CFZ533: anti-CD40 antagonistic antibody CFZ533 (i.e., iscalimab), positive control, variable regions from U.S. Pat. No. 8,277,810B” showed a pIC50 of 9.57.

The record behind these values is patent US20260207759A1, “COMPOSITION OF CD40-BINDING MOLECULE AND PHARMACEUTICAL USE THEREOF” (SUZHOU SUNCADIA BIOPHARMACEUTICALS CO., LTD., priority 2022, published 2026).
